Key:
Experiment in all cases: SPR, KD relative to WT C2;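 further: biacore SPR at 37 °C, anti-C2 mAbs captured on anti-human IgG chips with alanine or serine point mutants of C2 as analyte, KD from 1:1 fit compared with wild-type C2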
[1] = target: T1, human C2 I272A (human, UniProt P06681 21-752)
T1 sequence: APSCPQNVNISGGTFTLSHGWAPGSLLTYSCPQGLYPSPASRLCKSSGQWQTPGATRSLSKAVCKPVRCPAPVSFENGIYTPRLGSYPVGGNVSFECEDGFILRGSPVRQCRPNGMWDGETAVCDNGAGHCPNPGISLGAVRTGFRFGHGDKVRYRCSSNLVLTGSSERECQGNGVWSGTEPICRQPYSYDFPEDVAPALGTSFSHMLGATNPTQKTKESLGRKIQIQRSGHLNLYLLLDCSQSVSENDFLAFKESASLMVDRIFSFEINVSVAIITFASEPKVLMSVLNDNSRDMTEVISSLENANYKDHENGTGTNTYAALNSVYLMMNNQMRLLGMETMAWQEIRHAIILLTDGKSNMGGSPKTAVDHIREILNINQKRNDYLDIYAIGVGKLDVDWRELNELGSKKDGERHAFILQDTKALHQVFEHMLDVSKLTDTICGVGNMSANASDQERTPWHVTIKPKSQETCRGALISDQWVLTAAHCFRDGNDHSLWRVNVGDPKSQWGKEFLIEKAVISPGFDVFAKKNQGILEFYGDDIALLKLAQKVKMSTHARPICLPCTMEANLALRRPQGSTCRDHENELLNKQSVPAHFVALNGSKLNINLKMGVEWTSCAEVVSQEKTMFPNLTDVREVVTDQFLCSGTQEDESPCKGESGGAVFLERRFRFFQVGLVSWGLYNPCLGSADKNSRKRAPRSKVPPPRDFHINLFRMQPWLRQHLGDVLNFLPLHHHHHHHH
Method: (§1) Surface plasmon resonance (SPR, Biacore) was used for all binding affinity analyses. In brief, goat anti-human IgG was directly immobilised onto the carboxymethyl dextran surface of CM5 sensorchips to approximately 12,000 RU using standard NHS/EDC chemistry at pH 5. The immobilised antibody surface was pre-conditioned with ten injections of polyclonal human IgG (Privigen 60 s) prepared at 1 μg/mL. Ligands (anti-C2 mAbs) were captured at the beginning of each cycle as described below. An adjacent spot or flow cell in which only Polyclonal IgG was capture was used as a reference surface. The goat anti-human IgG Fc antibody surface was regenerate in 100 mM H3PO4, injected for 45 seconds at the end of each cycle. Experiments were performed at 37° C. and the flow rate of each experiment was kept constant at 30 μL/min.
(§2) Sensogram data was double-referenced against a reference anti-IgG surface (i.e. minus anti-C2 mAb) and blank buffer injections obtained within each experiment. The binding data was fit to 1:1 (kinetic or steady-state) model using local Rmax and null refraction index (RI=0) when appropriate. Buffers and solutions were filtered (0.22 μm) prior to use.

[2] = target: T2, human C2 N403A (human, UniProt P06681 21-752)
T2 sequence: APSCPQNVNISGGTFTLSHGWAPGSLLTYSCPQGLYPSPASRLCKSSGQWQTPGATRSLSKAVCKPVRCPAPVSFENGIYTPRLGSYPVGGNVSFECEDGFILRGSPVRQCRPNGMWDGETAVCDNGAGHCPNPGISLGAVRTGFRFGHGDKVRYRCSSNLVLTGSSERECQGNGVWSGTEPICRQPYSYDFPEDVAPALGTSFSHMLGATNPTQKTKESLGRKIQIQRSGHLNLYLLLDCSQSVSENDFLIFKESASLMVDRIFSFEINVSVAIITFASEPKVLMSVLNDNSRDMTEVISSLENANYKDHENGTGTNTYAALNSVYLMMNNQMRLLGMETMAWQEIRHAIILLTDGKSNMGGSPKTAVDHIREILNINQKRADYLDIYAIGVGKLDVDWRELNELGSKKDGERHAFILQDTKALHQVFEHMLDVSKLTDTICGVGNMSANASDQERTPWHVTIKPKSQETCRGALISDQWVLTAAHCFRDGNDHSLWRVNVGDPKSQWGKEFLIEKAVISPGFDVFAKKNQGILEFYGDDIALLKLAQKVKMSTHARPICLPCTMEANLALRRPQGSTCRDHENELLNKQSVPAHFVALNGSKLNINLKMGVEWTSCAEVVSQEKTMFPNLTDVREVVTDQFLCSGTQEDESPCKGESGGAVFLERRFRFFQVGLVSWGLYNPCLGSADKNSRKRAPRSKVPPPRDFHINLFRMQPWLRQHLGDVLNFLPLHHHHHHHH
Method: as §1, §2

[3] = target: T3, human C2 D404A (human, UniProt P06681 21-752)
T3 sequence: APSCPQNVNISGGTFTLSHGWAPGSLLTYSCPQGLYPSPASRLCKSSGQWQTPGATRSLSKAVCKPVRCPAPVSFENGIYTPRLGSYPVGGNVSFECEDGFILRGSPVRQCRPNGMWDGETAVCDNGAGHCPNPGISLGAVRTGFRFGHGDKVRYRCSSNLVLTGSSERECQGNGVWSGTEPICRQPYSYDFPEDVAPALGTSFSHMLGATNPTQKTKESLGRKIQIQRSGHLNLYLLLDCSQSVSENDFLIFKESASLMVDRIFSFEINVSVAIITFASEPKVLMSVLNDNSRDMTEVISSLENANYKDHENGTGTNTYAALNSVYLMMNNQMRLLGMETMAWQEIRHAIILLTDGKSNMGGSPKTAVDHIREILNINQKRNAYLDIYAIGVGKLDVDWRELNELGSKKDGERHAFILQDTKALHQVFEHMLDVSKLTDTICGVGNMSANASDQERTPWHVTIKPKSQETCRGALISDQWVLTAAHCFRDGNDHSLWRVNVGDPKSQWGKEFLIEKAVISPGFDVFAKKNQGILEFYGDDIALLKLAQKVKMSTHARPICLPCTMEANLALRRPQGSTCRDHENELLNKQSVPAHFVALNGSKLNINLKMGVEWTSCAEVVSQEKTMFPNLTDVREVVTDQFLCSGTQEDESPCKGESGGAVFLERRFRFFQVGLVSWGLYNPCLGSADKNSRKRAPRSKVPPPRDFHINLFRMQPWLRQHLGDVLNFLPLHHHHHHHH
Method: as §1, §2

[4] = target: T4, human C2 L271A (human, UniProt P06681 21-752)
T4 sequence: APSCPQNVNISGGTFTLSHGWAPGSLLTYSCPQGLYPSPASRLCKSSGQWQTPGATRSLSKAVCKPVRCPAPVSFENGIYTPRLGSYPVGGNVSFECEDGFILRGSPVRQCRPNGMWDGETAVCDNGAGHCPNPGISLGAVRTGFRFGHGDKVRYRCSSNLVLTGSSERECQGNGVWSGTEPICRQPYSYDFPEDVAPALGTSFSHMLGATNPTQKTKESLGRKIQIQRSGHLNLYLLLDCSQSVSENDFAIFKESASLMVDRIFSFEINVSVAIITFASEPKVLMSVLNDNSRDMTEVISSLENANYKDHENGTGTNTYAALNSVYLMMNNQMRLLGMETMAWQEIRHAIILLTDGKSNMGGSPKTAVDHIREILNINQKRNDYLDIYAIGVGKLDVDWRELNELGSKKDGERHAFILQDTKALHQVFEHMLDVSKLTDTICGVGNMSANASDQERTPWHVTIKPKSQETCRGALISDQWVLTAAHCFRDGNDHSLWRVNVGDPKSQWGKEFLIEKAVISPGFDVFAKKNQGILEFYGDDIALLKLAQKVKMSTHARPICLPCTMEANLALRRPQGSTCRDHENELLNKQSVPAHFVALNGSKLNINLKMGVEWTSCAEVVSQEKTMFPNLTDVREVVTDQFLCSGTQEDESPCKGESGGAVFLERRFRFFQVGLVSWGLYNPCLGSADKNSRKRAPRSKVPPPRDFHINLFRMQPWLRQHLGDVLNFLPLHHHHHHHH
Method: as §1, §2

B1: RF16-242 (antibody, human IgG4 S228P, lambda, V domains shown)
VH: EVQLLQSGAEVKKPGESLKISCKGSGYSFTSYWIGWVRQMPGKGLEWMGIIYPGDSDTRYSPSFQGQVTISADKSISTAYLQWSSLKASDTAMYYCARRGHYGDYFDYWGQGTLVTVSS
VL: SYELTQPPSVSVSPGQTARITCSGDALPKKYAYWYHQKSGQAPVLVIYEDRRRPSEIPERFSGSSSGTMATLTITGAQVEDEGVYFCYSRDRAGNQRVFGGGTQLTVLG
notes: pH-dependent anti-C2 antibody from a phage display library
[1]
  Fold diff: 1 fold
[2]
  Fold diff: 1 fold
[3]
  Fold diff: 2 fold
[4]
  Fold diff: 1 fold

— patent US20220332804A1 (CSL INNOVATION, published 2022)
